Source: patent US20020061306A1

Target: different strains of S. pyogenes (surface of the bacteria)

B1: α2-macroglobulin (native α2M) (protein, UniProt P01023 24-1474, looked up)
chain: SVSGKPQYMVLVPSLLHTETTEKGCVLLSYLNETVTVSASLESVRGNRSLFTDLEAENDVLHCVAFAVPKSSSNEEVMFLTVQVKGPTQEFKKRTTVMVKNEDSLVFVQTDKSIYKPGQTVKFRVVSMDENFHPLNELIPLVYIQDPKGNRIAQWQSFQLEGGLKQFSFPLSSEPFQGSYKVVVQKKSGGRTEHPFTVEEFVLPKFEVQVTVPKIITILEEEMNVSVCGLYTYGKPVPGHVTVSICRKYSDASDCHGEDSQAFCEKFSGQLNSHGCFYQQVKTKVFQLKRKEYEMKLHTEAQIQEEGTVVELTGRQSSEITRTITKLSFVKVDSHFRQGIPFFGQVRLVDGKGVPIPNKVIFIRGNEANYYSNATTDEHGLVQFSINTTNVMGTSLTVRVNYKDRSPCYGYQWVSEEHEEAHHTAYLVFSPSKSFVHLEPMSHELPCGHTQTVQAHYILNGGTLLGLKKLSFYYLIMAKGGIVRTGTHGLLVKQEDMKGHFSISIPVKSDIAPVARLLIYAVLPTGDVIGDSAKYDVENCLANKVDLSFSPSQSLPASHAHLRVTAAPQSVCALRAVDQSVLLMKPDAELSASSVYNLLPEKDLTGFPGPLNDQDNEDCINRHNVYINGITYTPVSSTNEKDMYSFLEDMGLKAFTNSKIRKPKMCPQLQQYEMHGPEGLRVGFYESDVMGRGHARLVHVEEPHTETVRKYFPETWIWDLVVVNSAGVAEVGVTVPDTITEWKAGAFCLSEDAGLGISSTASLRAFQPFFVELTMPYSVIRGEAFTLKATVLNYLPKCIRVSVQLEASPAFLAVPVEKEQAPHCICANGRQTVSWAVTPKSLGNVNFTVSAEALESQELCGTEVPSVPEHGRKDTVIKPLLVEPEGLEKETTFNSLLCPSGGEVSEELSLKLPPNVVEESARASVSVLGDILGSAMQNTQNLLQMPYGCGEQNMVLFAPNIYVLDYLNETQQLTPEIKSKAIGYLNTGYQRQLNYKHYDGSYSTFGERYGRNQGNTWLTAFVLKTFAQARAYIFIDEAHITQALIWLSQRQKDNGCFRSSGSLLNNAIKGGVEDEVTLSAYITIALLEIPLTVTHPVVRNALFCLESAWKTAQEGDHGSHVYTKALLAYAFALAGNQDKRKEVLKSLNEEAVKKDNSVHWERPQKPKAPVGHFYEPQAPSAEVEMTSYVLLAYLTAQPAPTSEDLTSATNIVKWITKQQNAQGGFSSTQDTVVALHALSKYGAATFTRTGKAAQVTIQSSGTFSSKFQVDNNNRLLLQQVSLPELPGEYSMKVTGEGCVYLQTSLKYNILPEKEEFPFALGVQTLPQTCDEPKAHTSFQISLSVSYTGSRSASNMAIVDVKMVSGFIPLKPTVKMLERSNHVSRTEVSSNHVLIYLDKVSNQTLSLFFTVLQDVPVRDLKPAIVKVYDYYETDEFAIAEYNAPCSKDLGNA
- % of added radiolabeled α2M bound: 0 to 76%
